# Molecular target: recombinant His-tagged PLS3 protein (pQE vector) (UniProt Q9NRY6)
# Sequence (Q9NRY6 whole entry): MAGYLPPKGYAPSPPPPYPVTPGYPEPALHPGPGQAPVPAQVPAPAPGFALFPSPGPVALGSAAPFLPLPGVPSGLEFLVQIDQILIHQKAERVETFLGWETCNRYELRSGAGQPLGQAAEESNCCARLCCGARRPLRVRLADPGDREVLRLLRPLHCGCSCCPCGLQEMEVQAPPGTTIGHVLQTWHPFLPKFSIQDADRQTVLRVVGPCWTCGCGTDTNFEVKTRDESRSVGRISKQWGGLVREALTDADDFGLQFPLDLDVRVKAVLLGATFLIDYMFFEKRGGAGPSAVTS
substance,measurement,value
recombinant PKC-δ enzyme (Calbiochem),in vitro phosphorylation,The PLS3 protein was a high-affinity substrate for PKC-δ and the phosphorylation steadily increased over the first 25 minutes
same,km,it was determined that the km is 10.5 nM

# — patent US20060172958
